Source: publication PMC7376557

Biological target: SasC aggregation domain (S. aureus surface protein C), His-tagged (S. aureus strain N315)
Test: SEC-MALS; FPLC-MALS (Wyatt Technology) of the purified His-tagged SasC aggregation domain; superpolymer of about 1,610 kDa against 41.5 kDa for the domain

## SasC aggregation domain (S. aureus surface protein C), His-tagged (domain or fragment)
  stoichiometry N: > 35
